Key:
HLA-A*11:01 [1] = test: IEDB peptide-MHC binding, purified MHC/competitive/fluorescence; filed as Kd, often an IC50 or EC50 that approximates it; ≥ and ≤ were set here for values at or beyond the usual limits of such assays; settings: source organism: Bacillus anthracis str. A0488
HLA-B*53:01 = test: as above; settings: source organism: Bacillus anthracis str. A0488
HLA-A*01:01 = test: as above
HLA-A*30:02 = test: as above; settings: source organism: Bacillus anthracis str. A0488
HLA-B*15:01 [2] = test: as above; settings: source organism: Bacillus anthracis str. A0488
HLA-B*07:02 [3] = test: as above
HLA-A*02:01 [4] = test: as above; settings: source organism: Bacillus anthracis str. A0488
HLA-B*08:01 = test: as above; settings: source organism: Bacillus anthracis str. A0488
HLA-A*03:01 = test: as above; settings: source organism: Bacillus anthracis str. A0488
HLA-B*27:03 = test: as above; settings: source organism: Bacillus anthracis str. A0488
HLA-A*29:02 = test: as above; settings: source organism: Bacillus anthracis str. A0488
HLA-B*18:01 = test: as above; settings: source organism: Bacillus anthracis str. A0488
HLA-B*57:01 = test: as above
HLA-B*46:01 [5] = test: as above; settings: source organism: Bacillus anthracis str. A0488
HLA-A*26:01 = test: as above
HLA-B*39:01 = test: as above; settings: source organism: Bacillus anthracis str. A0488
HLA-B*27:05 [6] = test: as above; settings: source organism: Bacillus anthracis str. A0488
HLA-B*14:02 = test: as above; settings: source organism: Bacillus anthracis str. A0488
HLA-B*40:01 [7] = test: as above; settings: source organism: Bacillus anthracis str. A0488
HLA-A*24:03 = test: as above; settings: source organism: Bacillus anthracis str. A0488
HLA-A*68:02 = test: as above
HLA-B*58:01 [8] = test: as above; settings: source organism: Bacillus anthracis str. A0488
HLA-A*30:01 [9] = test: as above; settings: source organism: Bacillus anthracis str. A0488
HLA-B*51:01 = test: as above; settings: source organism: Bacillus anthracis str. A0488
HLA-A*66:01 = test: as above; settings: source organism: Bacillus anthracis str. A0488
HLA-B*44:02 = test: as above; settings: source organism: Bacillus anthracis str. A0488
HLA-C*12:03 = test: IEDB peptide-MHC binding, purified MHC/direct/fluorescence; filed as Kd, often an IC50 or EC50 that approximates it; ≥ and ≤ were set here for values at or beyond the usual limits of such assays; settings: source organism: Bacillus anthracis str. A0488
HLA-B*83:01 = test: IEDB peptide-MHC binding, purified MHC/competitive/fluorescence; filed as Kd, often an IC50 or EC50 that approximates it; ≥ and ≤ were set here for values at or beyond the usual limits of such assays; settings: source organism: Influenza A virus (A/swine/Hannover/1/1981(H1N1))
HLA-C*14:02 = test: as above; settings: source organism: Influenza A virus (A/swine/Hannover/1/1981(H1N1))
HLA-B*15:42 = test: as above; settings: source organism: Influenza A virus (A/swine/Hannover/1/1981(H1N1))
HLA-B*27:20 = test: as above; settings: source organism: Influenza A virus (A/swine/Hannover/1/1981(H1N1))
HLA-B*45:06 = test: as above; settings: source organism: Influenza A virus (A/swine/Hannover/1/1981(H1N1))
HLA-B*15:01 [10] = test: IEDB peptide-MHC binding, purified MHC/direct/fluorescence; filed as Kd, often an IC50 or EC50 that approximates it; ≥ and ≤ were set here for values at or beyond the usual limits of such assays; settings: source organism: Yellow fever virus
HLA-B*46:01 [11] = test: as above; settings: source organism: Yellow fever virus
HLA-A*26:02 [12] = test: as above; settings: source organism: Yellow fever virus
HLA-B*35:01 = test: IEDB peptide-MHC binding, purified MHC/competitive/fluorescence; filed as Kd, often an IC50 or EC50 that approximates it; ≥ and ≤ were set here for values at or beyond the usual limits of such assays; settings: source organism: Mycobacterium tuberculosis C
HLA-B*15:17 = test: as above; settings: source organism: Mycobacterium tuberculosis C
HLA-A*26:03 = test: as above; settings: source organism: Mycobacterium tuberculosis C
HLA-A*69:01 = test: as above; settings: source organism: Mycobacterium tuberculosis C
HLA-A*26:02 [13] = test: as above; settings: source organism: Mycobacterium tuberculosis C
HLA-A*11:01 [14] = test: IEDB peptide-MHC binding, purified MHC/direct/fluorescence; filed as Kd, often an IC50 or EC50 that approximates it; ≥ and ≤ were set here for values at or beyond the usual limits of such assays; settings: source organism: Mycobacterium tuberculosis
HLA-B*07:02 [15] = test: as above; settings: source organism: Mycobacterium tuberculosis
HLA-A*02:01 [16] = test: as above; settings: source organism: Mycobacterium tuberculosis
HLA-A*31:01 = test: as above; settings: source organism: Mycobacterium tuberculosis
HLA-B*27:05 [17] = test: as above; settings: source organism: Mycobacterium tuberculosis
HLA-B*40:01 [18] = test: as above; settings: source organism: Mycobacterium tuberculosis
HLA-B*58:01 [19] = test: as above; settings: source organism: Mycobacterium tuberculosis
HLA-B*48:01 = test: as above; settings: source organism: Mycobacterium tuberculosis
HLA-A*80:01 = test: as above; settings: source organism: Camelpox virus M-96
HLA-A*30:01 [20] = test: as above; settings: source organism: Variola virus
[21] = source organism: Bacillus anthracis str. A0488
[22] = source organism: Mycobacterium tuberculosis C

Sequence: FVMPIFEQI
- Kd (HLA-A*11:01 [1]): ≥ 5 µM
- Kd (HLA-B*53:01): ≥ 5 µM
- Kd (HLA-A*01:01; [21]): ≥ 5 µM
- Kd (HLA-A*30:02): ≥ 5 µM
- Kd (HLA-B*15:01 [2]): ≥ 20 µM
- Kd (HLA-B*07:02 [3]; [21]): ≥ 5 µM
- Kd (HLA-A*02:01 [4]): ≥ 5 µM
- Kd (HLA-B*08:01): ≥ 5 µM
- Kd (HLA-A*03:01): ≥ 20 µM
- Kd (HLA-B*27:03): ≥ 20 µM
- Kd (HLA-A*29:02): ≥ 5 µM
- Kd (HLA-B*18:01): ≥ 20 µM
- Kd (HLA-B*57:01; [21]): ≥ 20 µM
- Kd (HLA-B*46:01 [5]): ≥ 20 µM
- Kd (HLA-A*26:01; [21]): ≥ 20 µM
- Kd (HLA-B*39:01): ≥ 20 µM
- Kd (HLA-B*27:05 [6]): ≥ 5 µM
- Kd (HLA-B*14:02): ≥ 5 µM
- Kd (HLA-B*40:01 [7]): ≥ 5 µM
- Kd (HLA-A*24:03): 0.0032 µM
- Kd (HLA-A*68:02; [21]): 0.0003 µM
- Kd (HLA-B*58:01 [8]): ≥ 5 µM
- Kd (HLA-A*30:01 [9]): ≥ 5 µM
- Kd (HLA-B*51:01): ≥ 20 µM
- Kd (HLA-A*66:01): ≥ 5 µM
- Kd (HLA-B*44:02): ≥ 5 µM
- Kd (HLA-C*12:03): 0.068 µM

Sequence: RRRFVQNAL
- Kd (HLA-B*07:02 [3]; source organism: Influenza A virus (A/swine/Hannover/1/1981(H1N1))): ≥ 20 µM
- Kd (HLA-B*83:01): ≥ 5 µM
- Kd (HLA-C*14:02): 0.21 µM
- Kd (HLA-B*15:42): ≥ 5 µM
- Kd (HLA-B*27:20): 0.0013 µM
- Kd (HLA-B*45:06): ≥ 5 µM

Sequence: LVLAVGPAY
- Kd (HLA-B*15:01 [10]): 0.0543 µM
- Kd (HLA-B*46:01 [11]): ≥ 20 µM
- Kd (HLA-A*26:02 [12]): 0.544 µM

Sequence: LTFLDCLYY
- Kd (HLA-B*35:01): 0.0713 µM
- Kd (HLA-A*01:01; [22]): 0.004 µM
- Kd (HLA-B*57:01; [22]): 0.187 µM
- Kd (HLA-B*15:17): 0.0005 µM
- Kd (HLA-A*26:01; [22]): 0.111 µM
- Kd (HLA-A*68:02; [22]): ≥ 20 µM
- Kd (HLA-A*26:03): ≥ 20 µM
- Kd (HLA-A*69:01): ≥ 20 µM
- Kd (HLA-A*26:02 [13]): ≥ 20 µM
- Kd (HLA-A*11:01 [14]): 0.0733 µM
- Kd (HLA-B*07:02 [15]): ≥ 20 µM
- Kd (HLA-A*02:01 [16]): ≥ 20 µM
- Kd (HLA-A*31:01): ≥ 20 µM
- Kd (HLA-B*27:05 [17]): ≥ 20 µM
- Kd (HLA-B*40:01 [18]): ≥ 20 µM
- Kd (HLA-B*58:01 [19]): 0.145 µM
- Kd (HLA-B*48:01): ≥ 20 µM

Sequence: ITYLMNRFK
- Kd (HLA-A*80:01): ≥ 20 µM
- Kd (HLA-A*30:01 [20]): ≤ 0.001 µM
